Laboratory results taken from patent publication US20210139907, “MATERIALS AND METHODS FOR THE DELIVERY OF THERAPEUTIC NUCLEIC ACIDS TO TISSUES” (UNIVERSITY OF MIAMI, published 2021).

Target: TMED6 (Homo sapiens, UniProt Q8WW62 Q8WW62:22-240)
Assay: competition; recombinant TMED6 (aptamer/protein molar ratio 1/1-1/10) dose-dependently inhibits aptamer staining of human pancreas sections
Settings: tags: HuProt v2.0 protein array (Arrayit); label: Cy3
Method: To identify the target of aptamer 1-717, protein arrays (HuProt™v2.0, Arrayit) were used. These protein arrays contains more than 19,000 human recombinant proteins allowing, by informatics analysis, the identification of the cognate protein of antibodies, peptides, or protein. This technology has been adapted for the identification of aptamer's ligands. Briefly, pre-blocked arrays were hybridized with 1 μg of cy3 labeled 1-717 or m12-3773 in blocking buffer for 30′ at RT. Arrays were washed, read in triplicate on a Genepix microarray reader and analyzed by an ad hoc generated software. This software 1) acquires the data from the gpr file, 2) adds a description column with (GeneID, Control, blank, ND), 2) use a optimized “plotArray” function modified in several points (the script was implemented for a specific protein array, plus some problem in UTF file format), 3) performs a quality control that includes a microarray image rebuilding the generation of MA plots, 4) normalized the data and substracts the background; and 5) analyze the differential expression between arrays via graphs of p-value distribution, volcano plot, and analysis of significant modulation by t-test. This analysis proposed TMED6 (NM144676.1, protein id Q8WW62) as the most likely ligand of aptamer 1-717. […] Images were acquired by a fluorescence microscope and aptamer binding quantified by cellprofiler.

Chain of TMED6 (Q8WW62 22-240, one chain of several): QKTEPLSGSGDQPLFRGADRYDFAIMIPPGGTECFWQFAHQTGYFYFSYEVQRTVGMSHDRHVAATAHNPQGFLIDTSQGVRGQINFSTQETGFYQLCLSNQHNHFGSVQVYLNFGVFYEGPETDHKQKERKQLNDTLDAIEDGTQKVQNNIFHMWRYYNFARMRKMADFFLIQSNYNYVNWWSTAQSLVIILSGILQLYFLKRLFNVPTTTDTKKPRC

B1: 1-717 (ssRNA)
RNA: GGAGGACGAUGCGGUAAUUCUCAGGAGGUGCGGAACGGGAUAUGGAUUGUUCGCCAGACGACUCGCUGAGGAUCCGAGA
modifications: 2'-F pyrimidines (2'-F-dCTP, 2'-F-dUTP in selection transcription)
Q: Does B1 bind?
A: binds
